Data on nine molecules can be found in PMC9407945 (Science immunology, 2022).

B1: humanized SW186 H1L3 (antibody, V domains shown)
VH: QVQLVQSGAEVKKPGSSVKVSCKASGVAFSSYWMNWVRQAPGQGLEWMGQIYPGDGDTNYNGKFKGRVTITADKSTSTAYMELSSLRSEDTAVYYCARGFIATVEETMDYWGQGTLVTVSS
VL: DIQMTQSPSSLSASVGDRVTITCRASQDISNYLNWYQQKPGKAPKLLIYYTSRLHSGVPSRFSGSGSGTDYTLTISSLQPEDFATYFCQQSHTLPWTFGGGTKLEIK
B2: humanized SW186 H2L3 (antibody, V domains shown)
VH: QVQLVQSGAEVKKPGSSVKVSCKASGVAFSSYWMNWVRQAPGQGLEWIGQIYPGDGDTNYNGKFKGRVTITADKSTSTAYMELSSLRSEDTAVYFCARGFIATVEETMDYWGQGTLVTVSS
VL: DIQMTQSPSSLSASVGDRVTITCRASQDISNYLNWYQQKPGKAPKLLIYYTSRLHSGVPSRFSGSGSGTDYTLTISSLQPEDFATYFCQQSHTLPWTFGGGTKLEIK
B3: humanized SW186 H2L2 (antibody, V domains shown)
VH: QVQLVQSGAEVKKPGSSVKVSCKASGVAFSSYWMNWVRQAPGQGLEWIGQIYPGDGDTNYNGKFKGRVTITADKSTSTAYMELSSLRSEDTAVYFCARGFIATVEETMDYWGQGTLVTVSS
VL: DIQMTQSPSSLSASVGDRVTITCRASQDISNYLNWYQQKPGKAPKLLIYYTSRLHSGVPSRFSGSGSGTDFTLTISSLQPEDFATYFCQQSHTLPWTFGGGTKLEIK
B4: humanized SW186 H2L1 (antibody, V domains shown)
VH: QVQLVQSGAEVKKPGSSVKVSCKASGVAFSSYWMNWVRQAPGQGLEWIGQIYPGDGDTNYNGKFKGRVTITADKSTSTAYMELSSLRSEDTAVYFCARGFIATVEETMDYWGQGTLVTVSS
VL: DIQMTQSPSSLSASVGDRVTITCRASQDISNYLNWYQQKPGKAPKLLIYYTSRLHSGVPSRFSGSGSGTDFTLTISSLQPEDFATYYCQQSHTLPWTFGGGTKLEIK
B5: humanized SW186 H1L4 (antibody, V domains shown)
VH: QVQLVQSGAEVKKPGSSVKVSCKASGVAFSSYWMNWVRQAPGQGLEWMGQIYPGDGDTNYNGKFKGRVTITADKSTSTAYMELSSLRSEDTAVYYCARGFIATVEETMDYWGQGTLVTVSS
VL: DIQMTQSPSSLSASVGDRVTITCRASQDISNYLNWYQQKPGKTVKLLIYYTSRLHSGVPSRFSGSGSGTDYTLTISSLQPEDFATYFCQQSHTLPWTFGGGTKLEIK
B6: humanized SW186 H3L1 (antibody, V domains shown)
VH: QVQLVQSGAEVKKPGSSVKVSCKASGVAFSSYWMNWVRQAPGQGLEWIGQIYPGDGDTNYNGKFKGRATITADKSTSTAYMELSSLRSEDTAVYFCARGFIATVEETMDYWGQGTLVTVSS
VL: DIQMTQSPSSLSASVGDRVTITCRASQDISNYLNWYQQKPGKAPKLLIYYTSRLHSGVPSRFSGSGSGTDFTLTISSLQPEDFATYYCQQSHTLPWTFGGGTKLEIK
B7: humanized SW186 H2L4 (antibody, V domains shown)
VH: QVQLVQSGAEVKKPGSSVKVSCKASGVAFSSYWMNWVRQAPGQGLEWIGQIYPGDGDTNYNGKFKGRVTITADKSTSTAYMELSSLRSEDTAVYFCARGFIATVEETMDYWGQGTLVTVSS
VL: DIQMTQSPSSLSASVGDRVTITCRASQDISNYLNWYQQKPGKTVKLLIYYTSRLHSGVPSRFSGSGSGTDYTLTISSLQPEDFATYFCQQSHTLPWTFGGGTKLEIK
B8: SW186 Fab (fragment antigen-binding region of SW186) (Fab, V domains shown)
VH: QVQLQQSGAELVKPGASVKISCKASGVAFSSYWMNWVKQRPGKGLEWIGQIYPGDGDTNYNGKFKGKATLTADKSSSTAYMQLSSLSSEDSAVYFCARGFIATVEETMDYWGQGTSVTVSS
VL: DIQMTQTTSSLSASLGDRVTISCRASQDISNYLNWYQQKPDGTVKLLIYYTSRLHSGVPSRFSGSGSGTDYSLTISNLEQEDIATYFCQQSHTLPWTFGGGTKLEIK
B9: SW186 monoclonal antibody (murine-human chimeric, human IgG1 backbone) (antibody, V domains shown)
VH: QVQLQQSGAELVKPGASVKISCKASGVAFSSYWMNWVKQRPGKGLEWIGQIYPGDGDTNYNGKFKGKATLTADKSSSTAYMQLSSLSSEDSAVYFCARGFIATVEETMDYWGQGTSVTVSS
VL: DIQMTQTTSSLSASLGDRVTISCRASQDISNYLNWYQQKPDGTVKLLIYYTSRLHSGVPSRFSGSGSGTDYSLTISNLEQEDIATYFCQQSHTLPWTFGGGTKLEIK

The target of the first test is SARS-CoV-2 spike ectodomain (S-ecto), Wuhan-hu-1, 2P (SARS-CoV-2, Wuhan-hu-1, UniProt P0DTC2, 2P mutation at residues 986 and 987, biotinylated (EZ-link NHS-sulfo-LC-Biotin) for the BLI assay). Put plainly: BLI. Particulars: both partners purified.
With B1, the Kd (as a rule, the constant that tells how readily two partners part at equilibrium) was found to be 4.37 nM.

B2 showed a Kd of 3.72 nM.

For the molecule B3, the Kd amounted to 12.6 nM.

Consider B4, for which the Kd turned out to be 18.1 nM.

Take B5: binding was characterised by a dissociation constant (Kd) of 5.03 nM.

Turning to B6, the dissociation constant (Kd) is 6.69 nM.

B7 yielded a Kd of 3.14 nM.

Another test deals with T1, SARS-CoV-2 spike ectodomain (S-ecto), Wuhan-hu-1 strain, residues 1-1208 with 2P mutation (SARS-CoV-2, Wuhan-hu-1, UniProt P0DTC2, 2P mutation at residues 986 and 987). The test can be described thus: BLI. The settings on record: both partners purified.
In turn, B8 had a Kd of around 1 nM.

The next test addresses T1, SARS-CoV-2 spike ectodomain (S-ecto), …. Put plainly: cell-based or functional assay.
Settings: not given
B9: the “neutralisation of infectious mNeonGreen SARS-CoV-2, WA1 strain, IC50” value was around 40 ng/mL.
